# Where no end group is shown, it is not given here.
# Columns and labels:
# [1] = Tumor dose per isotope
# [2] = biological target: T1, recombinant human FAPα (Homo sapiens, UniProt Q12884); assay: Multiplex substrate profiling by mass spectrometry (MSP-MS); type: biochemical; settings: for # of cleavages on MS: top P4-P4′ peptides cleaved by human FAP alpha; for # of cleavages on MSP-MS: human FAP alpha
# T1 sequence (Q12884 26-760 limits assumed): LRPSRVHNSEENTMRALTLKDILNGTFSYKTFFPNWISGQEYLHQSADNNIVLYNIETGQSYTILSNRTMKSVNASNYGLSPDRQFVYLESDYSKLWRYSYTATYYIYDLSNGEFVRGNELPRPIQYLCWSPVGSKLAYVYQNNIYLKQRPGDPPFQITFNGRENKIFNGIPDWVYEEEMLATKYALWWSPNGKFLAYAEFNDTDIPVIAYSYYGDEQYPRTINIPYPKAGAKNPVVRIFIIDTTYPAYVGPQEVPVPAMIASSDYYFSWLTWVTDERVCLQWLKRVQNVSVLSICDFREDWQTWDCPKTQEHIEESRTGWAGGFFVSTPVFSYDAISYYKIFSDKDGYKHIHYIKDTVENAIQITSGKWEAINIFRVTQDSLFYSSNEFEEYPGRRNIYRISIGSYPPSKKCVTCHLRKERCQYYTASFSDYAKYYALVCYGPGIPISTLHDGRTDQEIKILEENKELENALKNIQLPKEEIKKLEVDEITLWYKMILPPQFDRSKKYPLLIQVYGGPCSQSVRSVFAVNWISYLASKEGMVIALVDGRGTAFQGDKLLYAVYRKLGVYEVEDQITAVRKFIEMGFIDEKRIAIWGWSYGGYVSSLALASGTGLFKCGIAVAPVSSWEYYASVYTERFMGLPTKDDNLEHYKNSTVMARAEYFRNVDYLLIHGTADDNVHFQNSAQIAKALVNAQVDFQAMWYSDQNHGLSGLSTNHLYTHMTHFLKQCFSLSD
# Procedure: Although much is known about the substrate preferences for FAPα from P4-P1, an optimal P4-P4′ substrate sequence for FAPα has never been defined. In this example, multiplex substrate profiling by mass spectrometry (MSP-MS) was performed to identify candidate FAPα P4-P4′ substrate sequences for potential inclusion in a FAPα targeted restricted interaction peptide (or “FRIP”).
# Shown on the top of FIG. 3 is an Icelogo representing the cumulative amino acid preferences for recombinant human FAPα. Shown on the bottom of FIG. 3 is a heat map summarizing the amino acids that were most frequently incorporated at each site in the cleavage products. Lighter indicates an enriched amino acid. X=no preferred amino acid.
# A list of the top P4-P4′ peptides cleaved by human FAP alpha as determined using the MSP-MS substrate profiling technology are shown in the following table, where X indicates an undefined amino acid site.
# [3] = biological target: T1, recombinant human FAPα; assay: Kinetics of FRET donor/acceptor 8 mer substrates under Michaelis-Menten conditions; type: biochemical; settings: FRET donor/acceptor substrate adducts, human recombinant FAP alpha
# Procedure: Three top hits, […] (SEQ ID NO:38), […] (SEQ ID NO:40), and […] (SEQ ID NO:42), were selected for further analysis. An 8 mer peptide bearing FRET donor-acceptor dyes on the N and C terminus was synthesized and evaluated as a substrate for recombinant human FAPα (RND Systems) under Michaelis-Menten conditions.
# A table summarizing the kinetic properties of three of the top P4-P4′ 8 mer peptides emerging from the MSP-MS assay is provided below, where the kinetic properties were determined using FRET donor/acceptor substrate adducts and human recombinant FAP alpha.
molecule,measurement,setting,value
CN(CCCN1CCN(C(=O)CN2CCN(CC(=O)O)CCN(CC(=O)O)CCN(CC(=O)O)CC2)CC1)c1ccc2nccc(C(=O)NCC(=O)N3CC(F)(F)C[C@H]3C#N)c2c1 [FAPI 46],Tumor dose,[1]; Ac-225,720 Gy/mCi
same,Tumor dose,[1]; Cu-64,2 Gy/mCi
same,Tumor dose,[1]; Cu-67,11 Gy/mCi
same,Tumor dose,[1]; Lu-177,16 Gy/mCi
same,Tumor dose,[1]; Y-90,42 Gy/mCi
GMGPFHIV,# of cleavages on MS,[2],12
HIGPTAAY (also: FRET fluorophore/quencher labels) [tested as 8 mer FRET peptide],# of cleavages on MSP-MS,[2],43
same,# of cleavages on MS,[2],43
same,Km,[3],2.45 µM
same,kcat,[3],0.2986 s⁻¹
HQGPFWML (also: FRET labels) [tested as 8 mer FRET peptide],# of cleavages on MSP-MS,[2],30
same,# of cleavages on MS,[2],30
same,Km,[3],1.34 µM
same,kcat,[3],0.1041 s⁻¹
HYGPTVNK (also: FRET labels) [tested as 8 mer FRET peptide],# of cleavages on MSP-MS,[2],28
same,# of cleavages on MS,[2],28
same,Km,[3],2.7 µM
same,kcat,[3],0.04031 s⁻¹
XSGPDYQK,# of cleavages on MS,[2],14
XXFPNMWS,# of cleavages on MS,[2],23
XXGPKLTY,# of cleavages on MS,[2],28
XXGSQVFS,# of cleavages on MS,[2],21
XXHPTKSF,# of cleavages on MS,[2],16
XXIARQPW,# of cleavages on MS,[2],14
XXIPTNIR,# of cleavages on MS,[2],41
XXMPEEVA,# of cleavages on MS,[2],17
XXWPMGMY,# of cleavages on MS,[2],26
YHGPLAHX,# of cleavages on MS,[2],98
